Experimental data published in PMC3346141.

Target: TssL-His expressed in A. tumefaciens ΔtssMΔtssL (pTrc-TssL-His) (Agrobacterium tumefaciens)
Test: pull-down

Substance: Hcp, endogenous in A. tumefaciens (natural protein)
- Hcp signal relative to TssL-His in the bound fraction, H2O-treated cells: 0.21
